Holding throughout (experiment): SPOT array
The target in experiment [1] is Sho1 SH3 (SHO1_YEAST), P40073.
In experiment [2] the target is T1, Boi2 SH3 (BOI2_YEAST), P39969.
T1 chain: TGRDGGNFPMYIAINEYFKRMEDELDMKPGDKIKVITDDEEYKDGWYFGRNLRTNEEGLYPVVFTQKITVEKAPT

Experiment [3] has as its target T2, Yhr016c SH3 (YSC84_YEAST), P32793.
T2 chain: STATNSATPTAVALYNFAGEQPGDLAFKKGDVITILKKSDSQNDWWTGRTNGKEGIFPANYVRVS

Experiment [4] addresses T3, Yfr024 SH3 (LSB3_YEAST), P43603.
T3 chain: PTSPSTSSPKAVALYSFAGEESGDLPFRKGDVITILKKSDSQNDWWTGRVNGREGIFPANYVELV

In experiment [5] the target is T4, Boi1 SH3 (BOI1_YEAST), P38041.
T4 chain: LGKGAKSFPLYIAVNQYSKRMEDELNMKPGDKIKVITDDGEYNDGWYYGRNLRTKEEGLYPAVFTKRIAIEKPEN

The target in experiment [6] is T5, Rvs167 SH3 (RV167_YEAST), P39743.
T5 chain: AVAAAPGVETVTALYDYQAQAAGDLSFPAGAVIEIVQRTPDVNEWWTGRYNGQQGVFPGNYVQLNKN

Experiment [7] has as its target T6, Myo5 SH3 (MYO5_YEAST), Q04439.
T6 chain: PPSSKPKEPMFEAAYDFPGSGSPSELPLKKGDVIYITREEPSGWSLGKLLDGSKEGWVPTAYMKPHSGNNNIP

Sequence of Sho1 SH3 (SHO1_YEAST), P40073 (P40073 295-366): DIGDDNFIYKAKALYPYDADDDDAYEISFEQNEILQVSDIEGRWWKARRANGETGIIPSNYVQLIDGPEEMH

Regarding TQSGRMGPSEPKHR [YML020W 26-39], the normalised SPOT signal, Boehringer light units (BLU); mean over the file's lines of this peptide in experiment [1] worked out at 78.4; in experiment [2], 34.4; in experiment [3], 109; in experiment [4] it was 637; in experiment [5], 728; in experiment [6] it was 336. Also, the normalised SPOT signal, Boehringer light units (BLU); mean over the file's lines of this peptide in experiment [7] amounted to 456.

With TPQSRFPPYSPLLP [YDR103W 267-280], the normalised SPOT signal, Boehringer light units (BLU); mean over the file's lines of this peptide came to 34.7 in experiment [1]; 7.5 in experiment [2]; 34.2 in experiment [3]; 33.7 in experiment [4]; 57.1 in experiment [5]; 28 in experiment [6]. Further, in experiment [7], the normalised SPOT signal, Boehringer light units (BLU); mean over the file's lines of this peptide turned out to be 443.

As to TSISRISPQDPEAK [YDR109C 25-38], the normalised SPOT signal, Boehringer light units (BLU); mean over the file's lines of this peptide in experiment [1] is 29.1; in experiment [2] it was -0; in experiment [3], 19; in experiment [4], 20.2; in experiment [5], 95.3; in experiment [6] it was 8.5. In experiment [7], this molecule registered a normalised SPOT signal, Boehringer light units (BLU); mean over the file's lines of this peptide of 194.

For the molecule TSWARDNPSKPDIA [YHR209W 243-256], the normalised SPOT signal, Boehringer light units (BLU); mean over the file's lines of this peptide worked out at 40.9 in experiment [1]; 20.3 in experiment [2]; 49.1 in experiment [3]; 260 in experiment [4]; 82.3 in experiment [5]; 34.6 in experiment [6]. This molecule yielded a normalised SPOT signal, Boehringer light units (BLU); mean over the file's lines of this peptide in experiment [7] of 81.6.

For TSSTKEKPTPPTTT [YIR019C 265-278], the normalised SPOT signal, Boehringer light units (BLU); mean over the file's lines of this peptide in experiment [1] is 21; in experiment [2], 0.9; in experiment [3], 29.7; in experiment [4], 58.6; in experiment [5], 0; in experiment [6] it was 34.3. This molecule came in with a normalised SPOT signal, Boehringer light units (BLU); mean over the file's lines of this peptide in experiment [7] of 118.

As for TQMKRLKPVSPGLR [YEL050C 91-104], the normalised SPOT signal, Boehringer light units (BLU); mean over the file's lines of this peptide came to 417 in experiment [1]; 1140 in experiment [2]; 634 in experiment [3]; 4080 in experiment [4]; 2890 in experiment [5]; 1960 in experiment [6]. The same molecule registered a normalised SPOT signal, Boehringer light units (BLU); mean over the file's lines of this peptide in experiment [7] of 1450.

TSSSRRGPGRPRKD [YDR310C 200-213]: the normalised SPOT signal, Boehringer light units (BLU); mean over the file's lines of this peptide in experiment [1] is 416; in experiment [2] it was 23.6; in experiment [3], 65; in experiment [4], 969; in experiment [5], 418; in experiment [6], 269. In experiment [7], this molecule returned a normalised SPOT signal, Boehringer light units (BLU); mean over the file's lines of this peptide of 620.

For TSNTKWTPITPSVI [YDR515W 74-87], the normalised SPOT signal, Boehringer light units (BLU); mean over the file's lines of this peptide in experiment [1] was found to be 18.6; in experiment [2], 6.7; in experiment [3], 21; in experiment [4], 36.9; in experiment [5], 29.7; in experiment [6] it was 35. In addition, the normalised SPOT signal, Boehringer light units (BLU); mean over the file's lines of this peptide in experiment [7] is 142.

Regarding TSGYKYFPQFPQLK [YOR227W 765-778], the normalised SPOT signal, Boehringer light units (BLU); mean over the file's lines of this peptide amounted to 36.2 in experiment [1]; 32.8 in experiment [2]; 20.3 in experiment [3]; 134 in experiment [4]; 95.1 in experiment [5]; 58.8 in experiment [6]. This molecule also displayed a normalised SPOT signal, Boehringer light units (BLU); mean over the file's lines of this peptide in experiment [7] of 235.

For TQPVRKNPEAPARR [YOR042W 151-164], the normalised SPOT signal, Boehringer light units (BLU); mean over the file's lines of this peptide in experiment [1] turned out to be 60.1; in experiment [2] it was 32.4; in experiment [3], 159; in experiment [4], 3700; in experiment [5], 17200; in experiment [6], 410. This molecule came in with a normalised SPOT signal, Boehringer light units (BLU); mean over the file's lines of this peptide in experiment [7] of 232.

In the case of TSSLRKPPNGPSSV [YOR097C 144-157], the normalised SPOT signal, Boehringer light units (BLU); mean over the file's lines of this peptide stood at 99 in experiment [1]; 17.3 in experiment [2]; 37.6 in experiment [3]; 121 in experiment [4]; 29.2 in experiment [5]; 455 in experiment [6]. Moreover, the normalised SPOT signal, Boehringer light units (BLU); mean over the file's lines of this peptide in experiment [7] came out at 144.

The values are drawn from article PMC314469, “Protein Interaction Networks by Proteome Peptide Scanning” (PLoS Biology, 2004).
